These results are taken from publication PMC8667730.

The assay has as its target TLR5 protein from pGEX-6p-1 (GST-His*10-TEV-TLR5, digested with TEV protease), used for SPR (silvery pomfret (Pampus argenteus)). In words: SPR; BIAcore S200; TLR5 immobilised on an SA sensor chip; flaB proteins injected at 30 uL/min in PBS-P, 25°C; 1:1 Langmuir fit. A general note: SPR reads the build-up and loss of mass on a sensor chip optically.

Consider “flagellin B (flaB) from Vibrio anguillarum, wild type, recombinant (from UniProt Q56572 1-376) (natural protein)”, for which the Kd stood at 3.28 µM.

B1: flaB mutant F6 (E122, Glu to Ala) (natural protein)
chain: MAINVSTNVSAMTAQRYLNNAADGTQKSMERLSSGYKINSARDDAAGLQISNRLTSQSRGLDMAVRNANDGISIAQTAEGAMNETTNILQRMRDLSLQSANGSNSSSERQAIQEEVSALNDALNRIAETTSFGGNKLLNGSFGNKSFQIGADSGEAVMLSMSDMRSDTKAMGGKSYVATNGKAPDWSVTNATDLTLSYTDKQGEAREVTINAKAGDDLEEVATYINGQNGDIKASVGDEGKLQLFAANQKVSSDVTIGGGLGTEIGFAAGKDVTVKDINVTTVGGSQEAVALIDGALKAVDSQRASLGAFQNRFGHAISNLDNINENVNASRSRIKDTDYARETTQMTKSQILQQASTSVLAQAKQSPSAALSLLG
In turn, B1 gave a dissociation constant (Kd) of 4.4 µM.

B2: flaB mutant F12 (L97, Leu to Asn) (natural protein)
chain: MAINVSTNVSAMTAQRYLNNAADGTQKSMERLSSGYKINSARDDAAGLQISNRLTSQSRGLDMAVRNANDGISIAQTAEGAMNETTNILQRMRDLSNQSANGSNSSSERQAIQEEVSALNDELNRIAETTSFGGNKLLNGSFGNKSFQIGADSGEAVMLSMSDMRSDTKAMGGKSYVATNGKAPDWSVTNATDLTLSYTDKQGEAREVTINAKAGDDLEEVATYINGQNGDIKASVGDEGKLQLFAANQKVSSDVTIGGGLGTEIGFAAGKDVTVKDINVTTVGGSQEAVALIDGALKAVDSQRASLGAFQNRFGHAISNLDNINENVNASRSRIKDTDYARETTQMTKSQILQQASTSVLAQAKQSPSAALSLLG
B2 registered a Kd of 2.41 µM.

B3: flaB mutant F8 (N312, Asn to Ala) (natural protein)
chain: MAINVSTNVSAMTAQRYLNNAADGTQKSMERLSSGYKINSARDDAAGLQISNRLTSQSRGLDMAVRNANDGISIAQTAEGAMNETTNILQRMRDLSLQSANGSNSSSERQAIQEEVSALNDELNRIAETTSFGGNKLLNGSFGNKSFQIGADSGEAVMLSMSDMRSDTKAMGGKSYVATNGKAPDWSVTNATDLTLSYTDKQGEAREVTINAKAGDDLEEVATYINGQNGDIKASVGDEGKLQLFAANQKVSSDVTIGGGLGTEIGFAAGKDVTVKDINVTTVGGSQEAVALIDGALKAVDSQRASLGAFQARFGHAISNLDNINENVNASRSRIKDTDYARETTQMTKSQILQQASTSVLAQAKQSPSAALSLLG
Regarding B3, the Kd stood at 3.8 µM.

B4: flaB mutant F5 (D94, Asp to Ala) (natural protein)
chain: MAINVSTNVSAMTAQRYLNNAADGTQKSMERLSSGYKINSARDDAAGLQISNRLTSQSRGLDMAVRNANDGISIAQTAEGAMNETTNILQRMRALSLQSANGSNSSSERQAIQEEVSALNDELNRIAETTSFGGNKLLNGSFGNKSFQIGADSGEAVMLSMSDMRSDTKAMGGKSYVATNGKAPDWSVTNATDLTLSYTDKQGEAREVTINAKAGDDLEEVATYINGQNGDIKASVGDEGKLQLFAANQKVSSDVTIGGGLGTEIGFAAGKDVTVKDINVTTVGGSQEAVALIDGALKAVDSQRASLGAFQNRFGHAISNLDNINENVNASRSRIKDTDYARETTQMTKSQILQQASTSVLAQAKQSPSAALSLLG
Molecule B4 showed an equilibrium dissociation constant (Kd) of 46.3 µM.

B5: flaB mutant F7 (D152, Asp to Ala) (natural protein)
chain: MAINVSTNVSAMTAQRYLNNAADGTQKSMERLSSGYKINSARDDAAGLQISNRLTSQSRGLDMAVRNANDGISIAQTAEGAMNETTNILQRMRDLSLQSANGSNSSSERQAIQEEVSALNDELNRIAETTSFGGNKLLNGSFGNKSFQIGAASGEAVMLSMSDMRSDTKAMGGKSYVATNGKAPDWSVTNATDLTLSYTDKQGEAREVTINAKAGDDLEEVATYINGQNGDIKASVGDEGKLQLFAANQKVSSDVTIGGGLGTEIGFAAGKDVTVKDINVTTVGGSQEAVALIDGALKAVDSQRASLGAFQNRFGHAISNLDNINENVNASRSRIKDTDYARETTQMTKSQILQQASTSVLAQAKQSPSAALSLLG
For the molecule B5, the Kd stood at 71.7 µM.

B6: flaB mutant F3 (N87, Asn to Ala) (natural protein)
chain: MAINVSTNVSAMTAQRYLNNAADGTQKSMERLSSGYKINSARDDAAGLQISNRLTSQSRGLDMAVRNANDGISIAQTAEGAMNETTAILQRMRDLSLQSANGSNSSSERQAIQEEVSALNDELNRIAETTSFGGNKLLNGSFGNKSFQIGADSGEAVMLSMSDMRSDTKAMGGKSYVATNGKAPDWSVTNATDLTLSYTDKQGEAREVTINAKAGDDLEEVATYINGQNGDIKASVGDEGKLQLFAANQKVSSDVTIGGGLGTEIGFAAGKDVTVKDINVTTVGGSQEAVALIDGALKAVDSQRASLGAFQNRFGHAISNLDNINENVNASRSRIKDTDYARETTQMTKSQILQQASTSVLAQAKQSPSAALSLLG
Consider B6, for which the dissociation constant (Kd) was determined as 26.2 µM.

B7: flaB mutant F4 (R91, Arg to Ala) (natural protein)
chain: MAINVSTNVSAMTAQRYLNNAADGTQKSMERLSSGYKINSARDDAAGLQISNRLTSQSRGLDMAVRNANDGISIAQTAEGAMNETTNILQAMRDLSLQSANGSNSSSERQAIQEEVSALNDELNRIAETTSFGGNKLLNGSFGNKSFQIGADSGEAVMLSMSDMRSDTKAMGGKSYVATNGKAPDWSVTNATDLTLSYTDKQGEAREVTINAKAGDDLEEVATYINGQNGDIKASVGDEGKLQLFAANQKVSSDVTIGGGLGTEIGFAAGKDVTVKDINVTTVGGSQEAVALIDGALKAVDSQRASLGAFQNRFGHAISNLDNINENVNASRSRIKDTDYARETTQMTKSQILQQASTSVLAQAKQSPSAALSLLG
Regarding B7, the dissociation constant Kd came to 2.57 µM.

B8: flaB mutant F9 (R313, Arg to Ala) (natural protein)
chain: MAINVSTNVSAMTAQRYLNNAADGTQKSMERLSSGYKINSARDDAAGLQISNRLTSQSRGLDMAVRNANDGISIAQTAEGAMNETTNILQRMRDLSLQSANGSNSSSERQAIQEEVSALNDELNRIAETTSFGGNKLLNGSFGNKSFQIGADSGEAVMLSMSDMRSDTKAMGGKSYVATNGKAPDWSVTNATDLTLSYTDKQGEAREVTINAKAGDDLEEVATYINGQNGDIKASVGDEGKLQLFAANQKVSSDVTIGGGLGTEIGFAAGKDVTVKDINVTTVGGSQEAVALIDGALKAVDSQRASLGAFQNAFGHAISNLDNINENVNASRSRIKDTDYARETTQMTKSQILQQASTSVLAQAKQSPSAALSLLG
As for B8, the dissociation constant (Kd) came to 14.8 µM.

B9: flaB mutant F1 (Q57, Gln to Ala) (natural protein)
chain: MAINVSTNVSAMTAQRYLNNAADGTQKSMERLSSGYKINSARDDAAGLQISNRLTSASRGLDMAVRNANDGISIAQTAEGAMNETTNILQRMRDLSLQSANGSNSSSERQAIQEEVSALNDELNRIAETTSFGGNKLLNGSFGNKSFQIGADSGEAVMLSMSDMRSDTKAMGGKSYVATNGKAPDWSVTNATDLTLSYTDKQGEAREVTINAKAGDDLEEVATYINGQNGDIKASVGDEGKLQLFAANQKVSSDVTIGGGLGTEIGFAAGKDVTVKDINVTTVGGSQEAVALIDGALKAVDSQRASLGAFQNRFGHAISNLDNINENVNASRSRIKDTDYARETTQMTKSQILQQASTSVLAQAKQSPSAALSLLG
Consider B9, for which the dissociation constant Kd was determined as 0.431 µM.

B10: flaB mutant F14 (I324, Ile to Asn) (natural protein)
chain: MAINVSTNVSAMTAQRYLNNAADGTQKSMERLSSGYKINSARDDAAGLQISNRLTSQSRGLDMAVRNANDGISIAQTAEGAMNETTNILQRMRDLSLQSANGSNSSSERQAIQEEVSALNDELNRIAETTSFGGNKLLNGSFGNKSFQIGADSGEAVMLSMSDMRSDTKAMGGKSYVATNGKAPDWSVTNATDLTLSYTDKQGEAREVTINAKAGDDLEEVATYINGQNGDIKASVGDEGKLQLFAANQKVSSDVTIGGGLGTEIGFAAGKDVTVKDINVTTVGGSQEAVALIDGALKAVDSQRASLGAFQNRFGHAISNLDNNNENVNASRSRIKDTDYARETTQMTKSQILQQASTSVLAQAKQSPSAALSLLG
On to B10, for which the Kd came out at 27.5 µM. This Kd lies about 64-fold higher than the previous one.

B11: flaB mutant F11 (N320, Asn to Ala) (natural protein)
chain: MAINVSTNVSAMTAQRYLNNAADGTQKSMERLSSGYKINSARDDAAGLQISNRLTSQSRGLDMAVRNANDGISIAQTAEGAMNETTNILQRMRDLSLQSANGSNSSSERQAIQEEVSALNDELNRIAETTSFGGNKLLNGSFGNKSFQIGADSGEAVMLSMSDMRSDTKAMGGKSYVATNGKAPDWSVTNATDLTLSYTDKQGEAREVTINAKAGDDLEEVATYINGQNGDIKASVGDEGKLQLFAANQKVSSDVTIGGGLGTEIGFAAGKDVTVKDINVTTVGGSQEAVALIDGALKAVDSQRASLGAFQNRFGHAISALDNINENVNASRSRIKDTDYARETTQMTKSQILQQASTSVLAQAKQSPSAALSLLG
Take B11: the dissociation constant Kd came to 13 µM.

B12: flaB mutant F13 (H316, His to Ala) (natural protein)
chain: MAINVSTNVSAMTAQRYLNNAADGTQKSMERLSSGYKINSARDDAAGLQISNRLTSQSRGLDMAVRNANDGISIAQTAEGAMNETTNILQRMRDLSLQSANGSNSSSERQAIQEEVSALNDELNRIAETTSFGGNKLLNGSFGNKSFQIGADSGEAVMLSMSDMRSDTKAMGGKSYVATNGKAPDWSVTNATDLTLSYTDKQGEAREVTINAKAGDDLEEVATYINGQNGDIKASVGDEGKLQLFAANQKVSSDVTIGGGLGTEIGFAAGKDVTVKDINVTTVGGSQEAVALIDGALKAVDSQRASLGAFQNRFGAAISNLDNINENVNASRSRIKDTDYARETTQMTKSQILQQASTSVLAQAKQSPSAALSLLG
B12 came in with a dissociation constant (Kd) of 7.29 µM.

B13: flaB mutant F2 (N83, Asn to Ala) (natural protein)
chain: MAINVSTNVSAMTAQRYLNNAADGTQKSMERLSSGYKINSARDDAAGLQISNRLTSQSRGLDMAVRNANDGISIAQTAEGAMAETTNILQRMRDLSLQSANGSNSSSERQAIQEEVSALNDELNRIAETTSFGGNKLLNGSFGNKSFQIGADSGEAVMLSMSDMRSDTKAMGGKSYVATNGKAPDWSVTNATDLTLSYTDKQGEAREVTINAKAGDDLEEVATYINGQNGDIKASVGDEGKLQLFAANQKVSSDVTIGGGLGTEIGFAAGKDVTVKDINVTTVGGSQEAVALIDGALKAVDSQRASLGAFQNRFGHAISNLDNINENVNASRSRIKDTDYARETTQMTKSQILQQASTSVLAQAKQSPSAALSLLG
Molecule B13 returned a Kd of 0.447 µM. This Kd lies about 16-fold lower than the previous one.

In general, Kd refers to the constant that tells how readily two partners part at equilibrium. A higher Kd goes with lower affinity.
